T1: SsnA (NMV_0044) (Neisseria meningitidis 8013 2C4.3, UniProt Q9K1N6 Q9K1N6:1-94)
T1 sequence: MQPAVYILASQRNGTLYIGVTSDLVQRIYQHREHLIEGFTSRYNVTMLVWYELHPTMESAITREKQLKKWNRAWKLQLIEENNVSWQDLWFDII

B1: NTS#1 (ssDNA)
DNA: GAGGTTTCGGGCAACTTCTAAACCGTCATTCCCGCGCAGGCGGGAATCCAGACCATTGGACAGCAGCAATATTCAAAGATTATCTGAAAGTCCGGGATTC
B2: NTS#3 (ssDNA)
DNA: ATCCCGTCATTCCCGCCACTTTCCGTCATTCCCGCGAAAGCGGGAATCTAGAATCTCGGACTTTCAGATAATCTTTGAATATTGCTGTTGTTCTAAGGTC
B3: NTS#2 (ssDNA)
DNA: GTCATTCCCACGAACCTACATTCCGTCATTCCCACGAAAGTGGGAATCTAGAATCTCTAAAGCTTCAGCTAACCTTTGAATATTGCTGTTGTTCTAAGGT
B4: ssDNArev (ssDNA)
DNA: CCAGGTCTGTCGGTGCGGAAACTTATCGGATAAAACGGTTTCTTTAGATTTTACGTTCTAGATTCCCGCTTTCGCGGGAATGACGGAATATTTTTGAATT
modifications: [none]
B5: dsDNA (100 bp, NTS) (dsDNA)
DNA 1: AATTCAAAAATATTCCGTCATTCCCGCGAAAGCGGGAATCTAGAACGTAAAATCTAAAGAAACCGTTTTATCCGATAAGTTTCCGCACCGACAGACCTGG
DNA 2: B4 DNA
B6: NTS#4 (ssDNA)
DNA: TAAATGACCCCAACTTAAAATCCCGTCATTCCCGCGCAGGCGGGAATCTAGGTCTGTCGGTGCGGAAACTTATCGGGTAAAACGGTTTCTTGAGATTTTG
B7: NTS#5 (ssDNA)
DNA: GTCATTCCCACGAACCTACATTCCGTCATTCCCACGAAAGTGGGAATCCAGTGCGTTGAGTTTCAGTCATTTCCAATAAATTGCCTTAGTATTGAATGTC

Legend:
SsnA (NMV_0044) [1] = biological target: T1, SsnA (NMV_0044); assay: cleavage_in_vitro; conditions: 10 mM MgCl2, 37 C optimum; abolished by EDTA
SsnA (NMV_0044) [2] = biological target: T1, SsnA (NMV_0044); assay: EMSA; conditions: no Mg, 50 mM NaCl, 10 mM Tris pH 7.9, 37 C; 0.5 uM protein, 0.8 uM DNA
SsnA (NMV_0044) [3] = biological target: T1, SsnA (NMV_0044); assay: EMSA; binding preserved, cleavage reduced to varying extents; conditions: tags: N-terminal 6xHis; label: 5'-carboxyfluorescein; hairpin
Procedure: (§1) Electrophoretic mobility shift assay (EMSA). Gel shift assays, or EMSA, were performed by diluting the proteins in Diluent A (NEB) to the indicated working concentrations. 5′carboxyfluorescin-tagged oligos corresponding to genomic regions of N. meningitidis MC58 were synthesized from Sigma. When needed, complementary oligonucleotides were annealed by mixing equimolar amounts in annealing buffer (10 mM Tris-HCl PH8, 50 mM NaCl, 1 mM EDTA), incubating them 5 minutes at 95° C. and letting them slowly cool down. For the gel-shift assays, proteins were mixed with the fluorescent oligonucleotides in a reaction buffer containing 50 mM NaCl, 10 mM Tris-HCl, 100 μg/ml BSA, pH7.9. The mixes were incubated at 37° C. for 30 minutes before adding native loading dye. Samples were resolved on native 10% TBE-acrylamide gels and imaged with a Typhoon FLA9500 scanner. For branched DNA binding assays, a similar approach was used but the gel was stained with GelStain (Biotium) and imaged on a GelDoc (BioRad) since the oligonucleotides were not fluorescently labelled.

SsnA (NMV_0044) [4] = biological target: T1, SsnA (NMV_0044); assay: EMSA; unable to interact with RNA; conditions: tags: N-terminal 6xHis
Procedure: as §1

SsnA (NMV_0044) [5] = biological target: T1, SsnA (NMV_0044); assay: EMSA; no Mg, 37 C; also not cleaved; conditions: tags: N-terminal 6xHis; label: 5'-carboxyfluorescein
Procedure: Gel-shift (top, EMSA) and endonuclease (bottom) assays of 0.5 μM SsnA with 0.8 µM of DNA. Magnesium was omitted from the EMSA reaction mix to allow DNA binding by SsnA without nuclease activity. ssDNArev is the reverse complement of ssDNA. dsDNA is the double-stranded annealed product from ssDNA with ssDNArev. The arrow represents the recognition pattern (NTS repeat) of SsnA. Unless otherwise indicated (last well), assayed proteins were his-tagged.
as §1, with “For branched DNA binding assays, a similar approach was used but the gel was stained with GelStain (Biotium) and imaged on a GelDoc (BioRad) since the oligonucleotides were not fluorescently labelled.” left out

Row | Molecule | binding result (SsnA (NMV_0044) [3]) | further results
1 | ssDNA (100 nt, NTS) | – | activity (SsnA (NMV_0044) [1]): 100 % cleaved; binding (SsnA (NMV_0044) [2]): 100 % bound
2 | B1 | binds | –
3 | AAAAAUAUUCCGUCAUUCCCGCGAAAGCGGGAAUCUA (ssRNA) [RNA37] | – | binding result (SsnA (NMV_0044) [4]): no binding
4 | B2 | binds | –
5 | B3 | binds | –
6 | B4 | – | binding result (SsnA (NMV_0044) [5]): no binding
7 | B5 | – | binding result (SsnA (NMV_0044) [5]): no binding
8 | B6 | binds | –
9 | B7 | binds | –
